Biological target: recombinant human IGF-BP3 (GT2675 produced by GT) (UniProt P17936)
Sequence (P17936 28-291): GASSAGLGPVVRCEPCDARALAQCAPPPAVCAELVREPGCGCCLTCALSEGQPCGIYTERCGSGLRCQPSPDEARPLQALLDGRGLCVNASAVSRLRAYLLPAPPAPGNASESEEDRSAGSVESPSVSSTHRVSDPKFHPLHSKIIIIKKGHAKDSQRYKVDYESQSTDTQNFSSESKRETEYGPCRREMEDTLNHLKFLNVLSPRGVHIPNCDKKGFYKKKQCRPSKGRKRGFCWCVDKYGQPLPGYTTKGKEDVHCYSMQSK

Substance: human meltrin α-STFLAG after cleavage of the prodomain with thrombin (mature meltrin α having the prodomain deleted, 68 kDa)
- digestion of rhIGF-BP3 by meltrin α (SDS-PAGE and western blotting of rhIGF-BP3): the band corresponding to rhIGF-BP3 disappeared in the case of the meltrin α having the prodomain cleaved
